Blank lines part the entries; values can stand above or below the binder they belong to. Bridges are numbered along the chain shown (N, C = ends). Where no end group is shown, it is not given here.
B2: recombinant human BMP-2 (ligand)
chain: QAKHKQRKRLKSSCKRHPLYVDFSDVGWNDWIVAPPGYHAFYCHGECPFPLADHLNSTNHAIVQTLVNSVNSKIPKACCVPTELSAISMLYLDENEKVVLKNYQDMVVEGCGCR
B4: bovine fetuin (other)
chain: IPLDPVAGYKEPACDDPDTEQAALAAVDYINKHLPRGYKHTLNQIDSVKVWPRRPTGEVYDIEIDTLETTCHVLDPTPLANCSVRQQTQHAVEGDCDIHVLKQDGQFSVLFTKCDSSPDSAEDVRKLCPDCPLLAPLNDSRVVHAVEVALATFNAESNGSYLQLVEISRAQFVPLPVSVSVEFAVAATDCIAKEVVDPTKCNLLAEKQYGFCKGSVIQKALGGEDVRVTCTLFQTQPVIPQPQPDGAEAEAPSAVPDAAGPTPSAAGPPVASVVVGPSVVAVPLPLHRAHYDLRHTFSGVASVESSSGEAFHVGKTPIVGQPSIPGGPVRLCPGRIRYFKI

What was measured:
purified human TGF-β1 [1] = target: T1, purified human TGF-β1 (human, UniProt P01137); experiment: SPR (BIAcore); analyte over immobilized cytokine
Description: (§1) In this system, a purified protein serving as the ligand is covalently coupled to a carboxymethylated dextran surface, and binding molecules (i.e. the analyte) are passed in a fluid phase across the surface. Binding of the analyte to ligand causes a change in reflected light which is directly proportional to mass bound, and is measured in arbitrary response units (R.U.). Analyte-ligand binding is observed as both increasing response with time during the injection of analyte, and the difference in the position of the baseline before and after injection.
(§2) Data was analyzed using the BIA-evaluation software (Pharmacia Biosensor). The association rate constant, $kass$, was calculated by first plotting the change in response with time versus response (i.e. dR/dT vs R). When the slope of the line from this graph is plotted versus analyte concentration (i.e d(dR/dT)/dR vs C), $kass$ is obtained from the slope of the line. The dissociation rate constant, $kdiss$, is obtained during the decrease in response with time after analyte injection is discontinued. Specifically, $kdiss$ was obtained from the slope of the line in a plot of $\ln(Rt1/Rtn)$ vs time. The affinity constants were calculated from K_D = kdiss/kass. Variance for $kass$ is standard error of the linear regression plot, and for $kdiss$ values are the mean ± range of 3 or more independent injections.
(§3) Data was analyzed using the BIA-evaluation software (Pharmacia Biosensor). The association rate constant, $kass$, was calculated by first plotting the change in response with time versus response (ie. dR/dT vs R).

purified human TGF-β1 [2] = target: T1, purified human TGF-β1; experiment: SPR (BIAcore); analyte over immobilized cytokine; repeated calculation
Description: as §2
(§4) Binding constants for fetuins and TRH1 peptide interactions with TGF-β and BMPs measured using the BIAcore and BIA-evaluation software (Pharmacia Biosensor). The change in response with time was plotted for each analyte concentration (ie. dR/dT vs R), and the slope of these lines were then plotted as a function of analyte concentration (i.e d(dR/dT)/dR vs C), where the slope yields $kass$. The dissociation rate constant, $kdiss$, is obtained after analyte injection is discontinued as the slope of $\ln(Rtl/Rtn)$ vs time. K_Ds are $kdiss/kass$. Variance for $kass$ is standard error of the linear regression plot, and for $kdiss$ values are the mean ± range of 3 or more independent injections.

bovine serum albumin = bovine serum albumin (bovine, UniProt P02769); experiment: SPR (BIAcore), BMP-2 immobilized
Description: as §1

bovine fetuin [3] = target: B4; experiment: SPR (BIAcore); analyte over immobilized cytokine
Description: as §1, §2, §3

[4] = target: T2, adult human fetuin/α2-HS glycoprotein (human, UniProt P02765); experiment: SPR (BIAcore); analyte over immobilized cytokine
T2 sequence: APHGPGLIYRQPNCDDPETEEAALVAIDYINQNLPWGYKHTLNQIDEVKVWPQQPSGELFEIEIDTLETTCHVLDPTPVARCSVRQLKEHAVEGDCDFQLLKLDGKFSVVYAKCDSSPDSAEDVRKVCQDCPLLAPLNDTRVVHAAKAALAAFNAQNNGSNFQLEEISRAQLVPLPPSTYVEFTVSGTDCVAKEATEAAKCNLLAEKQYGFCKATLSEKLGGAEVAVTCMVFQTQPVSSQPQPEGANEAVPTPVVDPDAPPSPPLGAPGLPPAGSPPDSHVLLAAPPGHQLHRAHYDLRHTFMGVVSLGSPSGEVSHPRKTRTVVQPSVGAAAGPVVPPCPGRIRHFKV
Description: as §1, §4

bovine fetuin [5] = target: B4; experiment: SPR (BIAcore); analyte over immobilized cytokine; repeated calculation
Description: as §2, §4

recombinant human BMP-2 [6] = target: B2; experiment: SPR (BIAcore); analyte over immobilized cytokine
Description: as §1, §2, §3

recombinant human BMP-2 [7] = target: B2; experiment: SPR (BIAcore); analyte over immobilized cytokine; repeated calculation
Description: as §2, §4

recombinant human BMP-2 [8] = target: B2; experiment: SPR (BIAcore)

Binder: B2
binding result (bovine serum albumin): no binding (tested: 0.22, 0.29, 0.44, 0.59, 0.88 µM)
Kd (bovine fetuin [3]): 36 nM
Kd [4]: 51 nM
Kd (bovine fetuin [5]): 27 nM

Binder: B4
fold greater affinity than fetuin binding to TGF-β1 (recombinant human BMP-2 [8]): ~100 times

Continued, values first:

Kd (purified human TGF-β1 [1]): > 10000 nM
Kd (purified human TGF-β1 [2]): > 10000 nM
B1: reduced and alkylated TRH1b peptide from TβRII (peptide)
peptide: CVAVWRKNDENITLETVCHD
modifications: also: Cys reduced and alkylated, agent not given here, exact limits not given here

Kd (purified human TGF-β1 [1]): 520 nM
koff (purified human TGF-β1 [1]): 0.0019 s⁻¹
kon (purified human TGF-β1 [1]): 3700 M⁻¹ s⁻¹
Kd (recombinant human BMP-2 [6]): > 10000 nM
Kd (purified human TGF-β1 [2]): 1000 nM
koff (purified human TGF-β1 [2]): 0.0023 s⁻¹
kon (purified human TGF-β1 [2]): 2200 M⁻¹ s⁻¹
Kd (recombinant human BMP-2 [7]): > 10000 nM
B3: cyclized TRH1b peptide from TβRII (peptide)
peptide: CVAVWRKNDENITLETVC
modifications: disulfide 1-18 (inferred); also: exact limits not given here, terminal residues may be removed

Source: US5981483, “Compositions comprising modulators of cytokines of the TGF-β superfamily” (Mount Sinai Hospital Corporation, dated 1999)
